Assays:
[1] = target: ICAM-1 S3VS/AGL (human, UniProt P05362); test: COS cells on LFA-1 coated plastic
[2] = target: ICAM-1 S177/G (human, UniProt P05362); test: COS cells on LFA-1 coated plastic
[3] = target: T1, ICAM-1 K8/E (human, UniProt P05362); test: COS cells on LFA-1 coated plastic
[4] = target: T2, ICAM-1 R88V/EA (human, UniProt P05362); test: COS cells on LFA-1 coated plastic
[5] = target: ICAM-1 G46NN/ASI (human, UniProt P05362); test: COS cells on LFA-1 coated plastic
[6] = target: ICAM-1 D71/E (human, UniProt P05362); test: COS cells on LFA-1 coated plastic
[7] = target: ICAM-1 E87/K (human, UniProt P05362); test: COS cells on LFA-1 coated plastic
[8] = target: ICAM-1 K50V/EL (human, UniProt P05362); test: COS cells on LFA-1 coated plastic
[9] = target: ICAM-1 N48/H (human, UniProt P05362); test: COS cells on LFA-1 coated plastic
[10] = target: ICAM-1 V4/G (human, UniProt P05362); test: COS cells on LFA-1 coated plastic
[11] = target: ICAM-1 Q1/K (human, UniProt P05362); test: COS cells on LFA-1 coated plastic
[12] = target: ICAM-1 S74/A (human, UniProt P05362); test: COS cells on LFA-1 coated plastic
[13] = target: ICAM-1 N269QSQI/IQAEQ (human) (UniProt P05362); test: COS cells on LFA-1 coated plastic
[14] = target: ICAM-1 E90/K (human, UniProt P05362); test: COS cells on LFA-1 coated plastic
[15] = target: ICAM-1 E111GGA/KAGS (human, UniProt P05362); test: 35S-HRV14 on COS cells
Protocol: (§1) COS cells were seeded into 10 cm tissue culture plates such that they would be 50% confluent by 16-24 hrs. COS cells were then washed once with TBS and incubated for 4 hrs with 4 ml RPMI containing 10% Nu sera (Collaborative) 5 pg/ml chloroquine, 3 μg of mutant plasmid and 200 μg/ml DEAE-dextran sulfate. Cells were then washed with 10% DMSO/PBS followed by PBS and cultured 16 hrs in culture media. Culture media was replaced with fresh media and at 48 hrs post transfection (OS cells were suspended by trypsin/EDTA (Gibco) treatment and divided into 2, 10 cm plates as well as 24 well tissue culture plates for HRV binding. At 72 hrs cells were harvested from 10 cm plates with 5 mM EDTA/HBSS and processed for adhesion to LFA-1 coated plastic and immunofluorescence.
(§2) Binding occurred in 1 hr at 35° C. in a 5% CO₂ atmosphere with horizontal rotation (100 rpm). Unbound [³⁵S] HRV14 was aspirated, COS cells were gently washed with 150 ml of HRV buffer and then solubilized with 1% SDS in PBS for scintillation counting.
(§3) In Table 25, the notation for the mutations uses the one-letter code for the wild-type sequence followed by a slash and the one-letter code for the corresponding mutant sequence. The position of the first amino acid within the sequence is indicated. Wild type residues precede the slash followed by the residues they were substituted for in the mutant. COS cells expressing ICAM-1 mutants were tested for adherence to LFA-1 coated plastic and for binding 35S met-labeled HRV14. […] Binding is presented as mean and standard error (SE) for multiple experiments (n). […] The specific linear fluorescence intensity (SLFI) of CL203 for each mutant is normalized to that of wild type CL203 SLFI (% WT) as discussed above. The SLFI of RR1/1, R6.5 and LB-2 SLFI is normalized to the CL203 SLFI of the mutant (% CL203) as described above.

[16] = target: ICAM-1 N103/K (human, UniProt P05362); test: 35S-HRV14 on COS cells
Protocol: as §1, §2, §3

[17] = target: ICAM-1 V136GE/GVK (human, UniProt P05362); test: 35S-HRV14 on COS cells
Protocol: as §1, §2, §3

[18] = target: ICAM-1 N175/A (human, UniProt P05362); test: 35S-HRV14 on COS cells
Protocol: as §1, §2, §3

[19] = target: ICAM-1 Q58/H (human, UniProt P05362); test: 35S-HRV14 on COS cells
Protocol: as §1, §2, §3

[20] = target: T1, ICAM-1 K8/E; test: 35S-HRV14 on COS cells
Protocol: as §1, §2, §3

[21] = target: ICAM-1 E254DE/KEK (human, UniProt P05362); test: 35S-HRV14 on COS cells
Protocol: as §1, §2, §3

[22] = target: ICAM-1 S3/T (human, UniProt P05362); test: 35S-HRV14 on COS cells
Protocol: as §1, §2, §3

[23] = target: ICAM-1 R149RD/EEG (human, UniProt P05362); test: 35S-HRV14 on COS cells
Protocol: as §1, §2, §3

[24] = target: ICAM-1 D60/Q (human, UniProt P05362); test: 35S-HRV14 on COS cells
Protocol: as §1, §2, §3

[25] = target: T2, ICAM-1 R88V/EA; test: 35S-HRV14 on COS cells
Protocol: as §1, §2, §3

[26] = target: ICAM-1 H152HGA/EEGS (human, UniProt P05362); test: 35S-HRV14 on COS cells
Protocol: as §1, §2, §3

[27] = target: ICAM-1 L91/A (human, UniProt P05362); test: 35S-HRV14 on COS cells
Protocol: as §1, §2, §3

[28] = target: ICAM-1 D26QPK/ALPE (human, UniProt P05362); test: 35S-HRV14 on COS cells
Protocol: as §1, §2, §3

[29] = target: ICAM-1 N56V/HM (human, UniProt P05362); test: 35S-HRV14 on COS cells
Protocol: as §1, §2, §3

[30] = target: ICAM-1 D213GL/HGV (human, UniProt P05362); test: 35S-HRV14 on COS cells
Protocol: as §1, §2, §3

[31] = target: ICAM-1 E127/R (human, UniProt P05362); test: 35S-HRV14 on COS cells
Protocol: as §1, §2, §3

“purified LFA-1, bound to plastic (from UniProt P20701) (receptor)” showed an LFA-1 Binding % (% of wild type) [1] of 18, an LFA-1 Binding % (% of wild type) [2] of 59 and an LFA-1 Binding % (% of wild type) [3] of 84. For the same molecule, the LFA-1 Binding % (% of wild type) [4] was 95, the LFA-1 Binding % (% of wild type) [5] was 49 and the LFA-1 Binding % (% of wild type) [6] was 118. The LFA-1 Binding % (% of wild type) [7] was 65, the LFA-1 Binding % (% of wild type) [8] was 29 and the LFA-1 Binding % (% of wild type) [9] was 88. The LFA-1 Binding % (% of wild type) [10] was 64, the LFA-1 Binding % (% of wild type) [11] was 97 and the LFA-1 Binding % (% of wild type) [12] was 70. The LFA-1 Binding % (% of wild type) [13] was 101 and the LFA-1 Binding % (% of wild type) [14] was 34.

B1: human rhinovirus 14 (HRV14) (other)
chain: GAQVSTQKSGSHENQNILTNGSNQTFTVINYYKDAASTSSAGQSLSMDPSKFTEPVKDLMLKGAPALNSPNVEACGYSDRVQQITLGNSTITTQEAANAVVCYAEWPEYLPDVDASDVNKTSKPDTSVCRFYTLDSKTWTTGSKGWCWKLPDALKDMGVFGQNMFFHSLGRSGYTVHVQCNATKFHSGCLLVVVIPEHQLASHEGGNVSVKYTFTHPGERGIDLSSANEVGGPVKDVIYNMNGTLLGNLLIFPHQFINLRTNNTATIVIPYINSVPIDSMTRHNNVSLMVIPIAPLTVPTGATPSLPITVTIAPMCTEFSGIRSKSIVPQGLPTTTLPGSGQFLTTDDRQSPSALPNYEPTPRIHIPGKVHNLLEIIQVDTLIPMNNTHTKDEVNSYLIPLNANRQNEQVFGTNLFIGDGVFKTTLLGEIVQYYTHWSGSLRFSLMYTGPALSSAKLILAYTPPGARGPQDRREAMLGTHVVWDIGLQSTIVMTIPWTSGVQFRYTDPDTYTSAGFLSCWYQTSLILPPETTGQVYLLSFISACPDFKLRLMKDTQTISQTVALTEGLGDELEEVIVEKTKQTVASISSGPKHTQKVPILTANETGATMPVLPSDSIETRTTYMHFNGSETDVECFLGRAACVHVTEIQNKDATGIDNHREAKLFNDWKINLSSLVQLRKKLELFTYVRFDSEYTILATASQPDSANYSSNLVVQAMYVPPGAPNPKEWDDYTWQSASNPSVFFKVGDTSRFSVPYVGLASAYNCFYDGYSHDDAETQYGITVLNHMGSMAFRIVNEHDEHKTLVKIRVYHRAKHVEAWIPRAPRALPYTSIGRTNYPKNTEPVIKKRKGDIKSY
modifications: [35S]-Met labeled
For B1, the “HRV Binding %” value [15] was 162 % of wild type, the “HRV Binding %” value [16] was 13 % of wild type and the “HRV Binding %” value [17] was 117 % of wild type. For the same molecule, the “HRV Binding %” value [18] was 129 % of wild type, the “HRV Binding %” value [19] was 1 % of wild type and the “HRV Binding %” value [20] was 132 % of wild type. For the same molecule, the “HRV Binding %” value [21] was 99 % of wild type, the “HRV Binding %” value [22] was 196 % of wild type and the “HRV Binding %” value [23] was 139 % of wild type. For the same molecule, the “HRV Binding %” value [24] was 20 % of wild type, the “HRV Binding %” value [25] was 152 % of wild type and the “HRV Binding %” value [26] was 82 % of wild type. The “HRV Binding %” value [27] was 105 % of wild type, the “HRV Binding %” value [28] was 13 % of wild type and the “HRV Binding %” value [29] was 101 % of wild type. The “HRV Binding %” value [30] was 99 % of wild type and the “HRV Binding %” value [31] was 131 % of wild type.

— patent US20090035321A1, “Intercellular adhesion molecules and their binding ligands” (Boehringer Ingelheim Pharmaceuticals, Inc., published 2009)
